Reference: the nanobody polyreactivity screen of Harvey et al. (2022)

test: yeast display, Sf9 membrane polyspecificity reagent, FACS + sequencing; frameworks hold sequencing errors
Summary of the method: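 Polyreactivity labels are assigned by the sorting gate from which each nanobody was recovered. The gates were low and high (top ~1%), set on anti-HA fluorescence for expression and streptavidin fluorescence for reagent binding. Before sorting, galactose-induced (36–48 hours) yeast display cells were stained for 1 hour at 4 °C with 10% biotinylated, detergent-solubilized Sf9 membrane reagent.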

Sequence | polyreactivity (PSR sort gate)
QVQLEESGGGLVQAGASLRLICAASGFTFARNAMGWYRQAPGKERELVASITSGGSTNYADSVKGRFTISRDNAKNTVYLQMNSLKPEETAVYYCAAYQWIAPRRDYWGQGTQVTVSS | low polyreactivity
QVQLEESGGGLVQAGASLRLSCAASGNIFPRNAMGWYRQAPGKERELVAAISASGDNTYYADSVKGRFTISRDNAKNTVYLQMNSLKPEDTEVYYCAAATFYESIQPYESVAYDYWGQGTQVTVSS | low polyreactivity
QVQLEESGGGLVQAGGILRLSCAASGFTLVYYAMGSYRQAPGKERELVATISGNGGRTYYADSVKGRFTISRDNAKNTDNLQMNSLKPEDTAVYYCAALLYIGSVGYDYWGQGTQVTVSS | low polyreactivity
QVQLEESGGGLVQAGGRHRLSCAASGNIFTSYTMGWYRQAPGKERELVAAISGGGGSTYYADSVKGRFTISRDNAKNTVYLQMNSLKPEDTAVYYCNAGRWWRRGYGYWGQGTQVTVSS | high polyreactivity
QVQLEESGGGLVQAGGRLRLSCAASGITFGSYAMGWYRQAPGKERELVAAITRSDITNYADSVKGRFTISRDNAKNSVYLQMNRLNREDTAVYYCNKTPDRHRRYFGYGYWGHGTQVTVSS | low polyreactivity
QVQLEESGGGLVQAGGRLRLSCAASGSTFDPNTMGWYRQAPGKERELVATITSVDSTNYADSVKGRFTISRDNAKNTVYLQMNSLKPEDTAVYYCNAAYGGVFFYAYDYWGQGTQVTVSS | low polyreactivity
QVQLEESGGGLVQAGGRLRLSCDASGITLLLKAMGWYRQAPGKERELFAAISEGGGSTYYADSVKGRFTISRDNAKNTVYLQMNSLTPEDTAVYYCAADEYTPDYGQGYDYWGQGTQVTVSS | low polyreactivity
QVQLEESGGGLVQAGGSHRLSCAASGQIFRHYAMGWYRQAPGKEREFVAAITGSGGNTYYADSLKGRFTISRDNAKNTVYLQMNSLKPEDTAVYYCAVRAYPSYPRGVYAYYYWGQGTQVTVSS | high polyreactivity
QVQLEESGGGLVQAGGSHRLSCPASGRIFRANAMGWYRQAPGKERELLAAITRSGGSTYYADSVKGRFTISRDNAKNTVYLHMISLKPEDTAVYYWNARTRFDDGYDYWGQGTQVTVSS | high polyreactivity
QVQLEESGGGLVQAGGSLLLSCAASGLIFYHNAMGWYIQAPGKERELVAAITASGGSTYYADSVKGRFTISRDNANNTVYLQIISLKTEDTAVYYCAADGPLDSDLDYWRQGTQVTVSS | low polyreactivity
QVQLEESGGGLVQAGGSLPLICAASGRIFATYAMGWYRQAPGKARELVAAISGRGSSTYYADSVKVRFTISRDNAKNTVYLQMNSLKPEDTAVSYCAAVVRHSFGYDSWGQCTQVTVSS | high polyreactivity
QVQLEESGGGLVQAGGSLRFSCAASGSIMTRNAMGWYRQPTGKEMELVAAITGSGGRTYYADSVKGRFSISRDNAKKTFFLQMTSLIPEDTAVYYCATRYGREDYWGQGTQVNVSS | high polyreactivity
QVQLEESGGGLVQAGGSLRISCAASGRTIGPYAMGWYRQARGKERELVAAISGGGSTNYADSVKGRFTISRDNAKNSDYLQMNSLKPEDTAVYYCNTEYPISGEEEYWGQGTHVTVSS | low polyreactivity
QVQLEESGGGLVQAGGSLRISCAASGRTLRSYAMGWYRQAPGKERELVAAISWNGGDTYADSVKGRFTISRDNAKNTVYLQMNSLKPEDTAVYYCAASRWFSRYWYGIDKYNYWGQGTQVTVSS | high polyreactivity
QVQLEESGGGLVQAGGSLRISCAASGSTFWRYTMGWYRQEPGKERELVAAISWSGDGTYYADSVKGRFTISRDNAKNTVYLQMNSLKPEDTAVYYCAAEVYYANGYDYDYWGQGTQVTVSS | low polyreactivity
QVQLEESGGGLVQAGGSLRISCAAYGRTLRQYALGWYRQAPGKERELVAAISRGGSTTYADSVKGRFTISRDNAKNTVYLQMNSLKPEDTAVYYCAAVSSKGNRHEYDYWGQGTQVTVSS | low polyreactivity
QVQLEESGGGLVQAGGSLRLICAASGSIFYQYPMGWYRQAPGKERELVAGITWSGGSTYYADSVKGRFTISRDNAKNTVYLQMNSLKPEDTAVYYCAAQYFCYVYSYDYWGQGTQVTVSS | high polyreactivity
QVQLEESGGGLVQAGGSLRLSCAASALTIEYNAKGSYRQAPAKERELVATISWSDSTRYADSVKGRLTISRDNAKSTVYLQMNSLKPEYTAVYDSNADVYWAWWEFDYWGQGTQVTVSS | low polyreactivity
QVQLEESGGGLVQAGGSLRLSCAASGFIFSWYVMGWYRQAPGKERELVAAISQSGGDTYYADSVKGRFTISRDNAKNTVYLQMNSLKPEDTAVYYCAVGRVGRFYYWGQGTQVTVSS | high polyreactivity
QVQLEESGGGLVQAGGSLRLSCAASGFTFGVYPMGWYRQATGKEREFVADITYSGGSTYYADSVKGRFTISRDNAKNTVYLHMNSLKPEDTAVYYCAAGYVYTWYGEYVVGYDYWGQGTQVTVSS | high polyreactivity
QVQLEESGGGLVQAGGSLRLSCAASGFTFHPNAMGWYRQAPGKERELVAAIRYSTGRTYYADSVKGRFTISRDNAKNTVYLQMNSLKPEDTAVYYCAREALQYPGLKYNYWGQGTQVTVSS | low polyreactivity
QVQLEESGGGLVQAGGSLRLSCAASGFTFIRYAMGWYRQAPGTERELVAAIRGTGTSTYYADSVKGRFTISRDNAKNTVYLQMNSLKPEDTAVYYCNKVAGRSPYTRYDYWGQGTQVTVSS | low polyreactivity

Sequence | polyreactivity (PSR sort gate)
QVQLEESGGGLVQAGGSLRLSCAASGFTFRKNAMGWYRQAPGKERELVAAISSGGGRTYYADSVKGRFTISRDNANNTVYLQMNSLKPEDTAVYYCAVSIGRYPYRYGYWGQGTQVTVSS | high polyreactivity
QVQLEESGGGLVQAGGSLRLSCAASGFTFTDYAMGWYRQAPGKERELVAVITYDSTYYADSVKGRFTISRDNAKNTVYLQMNSLKPEDTAVYYCAADSYDWGDFDYWGQGTQVTVSS | low polyreactivity
QVQLEESGGGLVQAGGSLRLSCAASGFTFVPYAMGWYRPAPGKETEFVAALFSDGSTYYADSVKGRFTISRDNAKNTVYLQMNSLKPEDTAVYYCAAAGESSRTGHFDYWGQGTQVTVSS | low polyreactivity
QVQLEESGGGLVQAGGSLRLSCAASGFTFVSYAMGWYRQAPGKERELVAAISRRGGRTYYADSVKGRFTISRDNAKNTVYLQMNSLKPEDTAVYYCNKDYYGSPSSYYWYDYWGQGTQVTVSS | high polyreactivity
QVQLEESGGGLVQAGGSLRLSCAASGFTFYDYAMVWYRQAPGKERELVAAIRRSGTRTYYADSVKGRFTISRDNAKNTVYLQINSLKPEDTAVYYCAARYSYTHQRDYWGQGTLVTVSS | high polyreactivity
QVQLEESGGGLVQAGGSLRLSCAASGFTFYSYVMGWYRPAPGKVTELVAAIYWSGGSTYYADSVKGRFTISRDNAKYTVYLQMNSLKPEDTAVYYCAARRYASRNGYLYDYWGQGTQVTVSS | high polyreactivity
QVQLEESGGGLVQAGGSLRLSCAASGGIFYEYAMGRYRQAPGKERELVATISFNVASTYADSVKGRFTISRDNAKNTVFLQMNSMKPEDTAVYYCIADTYWYRDSRYDYWGQGTQVTVSS | low polyreactivity
QVQLEESGGGLVQAGGSLRLSCAASGIIFILYTMGWYRQAPGKERELVATISSGGGSTFYADSVKGRFTISRDNAKNTVYLQMNSLKPEDTAVYYCAAEQLYYGERYYIWGYYYWGQGTQVTVSS | low polyreactivity
QVQLEESGGGLVQAGGSLRLSCAASGIIFRFYTMGWYRQAPGKERELVAVITWSGGSTYYADSVKGRFSISRDNAMNTVYLQMNSLKPEATAVYYCNAEYTYGNSVYKYDYWGQGTQVTVSS | low polyreactivity
QVQLEESGGGLVQAGGSLRLSCAASGIIIATYAMGWYRQAPGKERELVAVISNDGSTHYADSVKGRFTISRDNAKNTVYLQMNSLKPEDTAVYYCNAEEIDEASYAYPPLEYDYWGQGTQVTVSS | low polyreactivity
QVQLEESGGGLVQAGGSLRLSCAASGINFSVYGMGGYRQATGKERELVASITKSGGTTYYADSVKGRFTISRDNAKNTVYLQMNSLKPEDTAVYYCAAAWSDKRVLSVYYAYYWGQGTQVTVSS | high polyreactivity
QVQLEESGGGLVQAGGSLRLSCAASGITFFWNAMGWYRQAPGTERELVAVISSGGSTKYSDSVKGRFTISRDNAKNTVYLQMNSLKPEDTAVYYCAAAVRVGTRQYGYWGQGTQVTVSS | high polyreactivity
QVQLEESGGGLVQAGGSLRLSCAASGITFRQYAMGWYRQAPGKERELVATISSGDDTYYADSVKGRFTISRDNAKNTVYLQMNSLKPEDTAVYYCAARYWTSIVRYRGDYWGQGTQVTVSS | high polyreactivity
QVQLEESGGGLVQAGGSLRLSCAASGITFSGNAMGWYRQAPGKERELVATISQSGGRTYYADSVKGRFTISRDNAKNTVYLQMNSLKPEDTAVYYCARRRLRYTDRGYYYWGQGTQVTVSS | high polyreactivity
QVQLEESGGGLVQAGGSLRLSCAASGLTFRIYAMGWYRQAPGKERELVAAISYRGGSTYYADSVKGRFTISRDNAKNTVSLQMNSLKPEDTAVYYCAAGFVLNGIRYDFWGQGTQLTVSS | high polyreactivity
QVQLEESGGGLVQAGGSLRLSCAASGLTISWNAMGWYRQAPGKERELVAAISSRGGSTYYADSVKARFKISRDNAKNTVYLQMNSLKPEETAVYYCAAEGYTYYPVYSTRMYYWGQGTQVTVLS | low polyreactivity
QVQLEESGGGLVQAGGSLRLSCAASGNILWKNAMGWYRQAPGKERELVAAITRSGGSTYYADSVKGRFTISRDNAKNTVYLQMNSLKPEDTAVYYCATRNLGYRPYRYDYWGQGTQVTVSS | high polyreactivity
QVQLEESGGGLVQAGGSLRLSCAASGRIFGGYAMGWYRQAPGKERELVAAITSSGSTNYADSVKGRFTISRDNAKNTVYLQMNSLKPEDTAVYYCATDFKTVYYWWGMDYWGQGTQVTVSS | low polyreactivity
QVQLEESGGGLVQAGGSLRLSCAASGRIFYGNSMGWYRQAPGKERELVAAISKRGGSTYYADSVKGRFTISRDNAKNTVYLQMNSLKPEDTAVYYCAASYPTRAWEYDYWGQGTQVTVAS | high polyreactivity
QVQLEESGGGLVQAGGSLRLSCAASGRIGAYAMGWYRQAPGKERELVAGITSNGASTYYADSVKGRFTISRDNAKNTVYLQMNSLKPEDTAVYYCAARYRFQRGGYYYWGQGTQVTVSS | high polyreactivity
QVQLEESGGGLVQAGGSLRLSCAASGRIRYYAMGWYRQAPGKERELVAAISSTGGSTYYADSVKGRFTISRDNAKNTVYFQMNSLKPEDTAVYYCNVAWIWGKYEYWGQGTQVTVSS | high polyreactivity
